Results as given in article doi:10.1101/2023.06.26.546597 (bioRxiv, 2023).

Biological target: the molecule itself
Test: crystal structure

B1: YisK with C-terminal histidine tag (enzyme, B. subtilis 168, UniProt O06724 1-301, looked up)
chain: MKFATGELYNRMFVGLIIDDEKIMDLQKAEKKLFELETIPGSLIECIAEGDKFVAHARQLAEWAKKPNDELGSFMYSLSEVKLHAPIPKPSKNIICIGKNYRDHAIEMGSEADIPEHPMVFTKSPVTVTGHGDIVKSHEEVTSQLDYEGELAVVIGKSGTRISKEDAYDHVFGYTIVNDITARDLQKRHKQFFIGKSLDTTCPMGPVLVHKSSIQEPERLKVETRVNGELRQSGSASDMIFSIPELIETLSKGMTLEAGDIIATGTPSGVGKGFTPPKFLRSGDKIDITIDPIGTLSNQIG
- binding result: binds
